± gives the uncertainty stated by the source.
B1: library; numbered along this chain (parent)
chain: MEVVDPQQLGMFTEGELMSVGMDTFIHRIDSTEVIYQPRRKRAKLIGKYLMGDLLGEGSYGKVKEVLDSETLCRRAVKILKKKKLRRIPNGEANVKKEIQLLRRLRHKNVIQLVDVLYNEEKQKMYMVMEYCVCGMQEMLDSVPEKRFPVCQAHGYFCQLIDGLEYLHSQGIVHKDIKPGNLLLTTGGTLKISDLGVAEALHPFAADDTCRTSQGSPAFQPPEIANGLDTFSGFKVDIWSAGVTLYNITTGLYPFEGDNIYKLFENIGKGSYAIPGDCGPPLSDLLKGMLEYEPAKRFSIRQIRQHSWFRKKHPPAEAPVPIPPSPDTKDRWRSMTVVPYLEDLHGADEDEDLFDIEDDIIYTQDFTVPGQVPEEEASHNGQRRGLPKAVCMNGTEAAQLSTKSRAEGRAPNPARKACSASSKIRRLSACKQQ

Variants of: B1
Assay: STK11 functional score (HeLa growth suppression), rescaled enrichment; synonymous median = 1, nonsense median = 0 (normalised score)
Details: with HeLa; variant type: missense
Method in brief: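 The functional score takes the post/pre-selection log ratio, corrects it to wild type, rescales it to synonymous and nonsense medians, and merges it over codons and replicate transfections, with error from bootstrapping. Counts came from tiled gDNA amplicons sequenced on NextSeq (~2 million reads per tile). The libraries were POPCode codon-randomised, codon-optimised STK11 integrated by Bxb1 at an AAVS1 landing pad in HeLa, three regions with three transfections each.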

| Variant | STK11 functional score |
| --- | --- |
| MEVVDPQQLGMFTEGELMSVGMDTFIHRIDSTEVIYQPRRKRAKLIGKYLMGDLLGEGSYGKVKEVLDSETLCRRAVKILKKKKLRRIPNGEANVKKEIQLLRRLRHKNVIQLVDVLYNEEKQKMYMVMEYCVCGMQEMLDSVPEKRFPVCQAHGYFCQLIDGLEYLHSQGIVHKDIKPGNLLLTTGGTLKISDLGVAEALHPFAADDTCRTSQGSPAFQPPEEANGLDTFSGFKVDIWSAGVTLYNITTGLYPFEGDNIYKLFENIGKGSYAIPGDCGPPLSDLLKGMLEYEPAKRFSIRQIRQHSWFRKKHPPAEAPVPIPPSPDTKDRWRSMTVVPYLEDLHGADEDEDLFDIEDDIIYTQDFTVPGQVPEEEASHNGQRRGLPKAVCMNGTEAAQLSTKSRAEGRAPNPARKACSASSKIRRLSACKQQ [I224E] | 1.03 ± 0.86 |
| MEVVDPQLLGMFTEGELMSVGMDTFIHRIDSTEVIYQPRRKRAKLIGKYLMGDLLGEGSYGKVKEVLDSETLCRRAVKILKKKKLRRIPNGEANVKKEIQLLRRLRHKNVIQLVDVLYNEEKQKMYMVMEYCVCGMQEMLDSVPEKRFPVCQAHGYFCQLIDGLEYLHSQGIVHKDIKPGNLLLTTGGTLKISDLGVAEALHPFAADDTCRTSQGSPAFQPPEIANGLDTFSGFKVDIWSAGVTLYNITTGLYPFEGDNIYKLFENIGKGSYAIPGDCGPPLSDLLKGMLEYEPAKRFSIRQIRQHSWFRKKHPPAEAPVPIPPSPDTKDRWRSMTVVPYLEDLHGADEDEDLFDIEDDIIYTQDFTVPGQVPEEEASHNGQRRGLPKAVCMNGTEAAQLSTKSRAEGRAPNPARKACSASSKIRRLSACKQQ [Q8L] | 1.5 ± 0.66 |
| MEVVDPQQLGMFTEGELMSVGMDTFIHRIDSTEVIYQPRRKRAKLIGKYLMGDLLGEGSYGKVKEVLDSETLCRRAVKILKKKKLRRIPNGEANVKKEIQLLRRLRHKNVIQLVDVLYNEEKQKMYMVMEYCVCGMQEMLDSVPEKRFPVCQAHGYFCQLIDGLEYLHSQGIVHKDIKPGNLLLTTGGTLKISDLGVAEALHPFAADDTCRTSQGSPAFQPPEIANGLDTFSGFKVDIWSAGVTLYNITTGLYPFEGDNIYKLFENIGKGSYAIPGDCGPPLSDLLKGMLEYEPAKRFSIRQIRQHSWFRKKHPPAEAPVPIPPSPDTKDRWRSMTVVPYLEDLHGADEDEDLFDIEDDIIYTQDFTVPGQVPEEEASHNPQRRGLPKAVCMNGTEAAQLSTKSRAEGRAPNPARKACSASSKIRRLSACKQQ [G381P] | 1.61 ± 0.28 |
| MEVVDPQQLGMFTEGELMSVGMDTFIHRIDSTEVIYQPRRKRAKLIGKYLMGDLLGEGSYGKVKEVLDSETLCRRAVKILKKKKLRRIPNGEANVKKEIQLLRRLRHKNVIQLVDVLYNEEKQKMYMVMEYCVCGMQEMLDSVPEKRFPVYQAHGYFCQLIDGLEYLHSQGIVHKDIKPGNLLLTTGGTLKISDLGVAEALHPFAADDTCRTSQGSPAFQPPEIANGLDTFSGFKVDIWSAGVTLYNITTGLYPFEGDNIYKLFENIGKGSYAIPGDCGPPLSDLLKGMLEYEPAKRFSIRQIRQHSWFRKKHPPAEAPVPIPPSPDTKDRWRSMTVVPYLEDLHGADEDEDLFDIEDDIIYTQDFTVPGQVPEEEASHNGQRRGLPKAVCMNGTEAAQLSTKSRAEGRAPNPARKACSASSKIRRLSACKQQ [C151Y] | 1.45 ± 0.41 |
| MEVVDPQQLGMFTEGELMSVGMDTFIHRIDSTEVIYQPRRKRAKLIGKYLMGDLLGEGSYGKVKEVLDSETLCRRAVKILKKKKLRRIPNGEANVKKEIQLLRRLRHKNVIQLVDVLYNEEKQKMYMVMEYCVCGMQEMLDSVPEKRFPVCQAHGYFCQLIDGLEYLHSQGIVHKDIKPGNLLLTTGGTLKISDLGVAEALHPFAADDTCRTSQGSPAFQPPEIANGLDTFSGFKVDIWSAGVTLYNITTGLYPFEGDNIYKLFENIGKGSYAIPGDCGPPLSDLLKGMLEYEPAKRFSIRQIRQHSWFRKKHPPAEAPVPIPPSPDTKVRWRSMTVVPYLEDLHGADEDEDLFDIEDDIIYTQDFTVPGQVPEEEASHNGQRRGLPKAVCMNGTEAAQLSTKSRAEGRAPNPARKACSASSKIRRLSACKQQ [D330V] | 1.46 ± 0.3 |
| MEVVDPQQLGMFTEGELMSVGMDTFIHRIDSTEVIYQPRRKRAKLIGKYLMGDLLGEGSYGKVKEVLDSETLCRRAVKILKKKKLRRIPNGEANVKKEIQLLRRLRHKNVIQLVDVLYNEEKQKMYMVMEYCVCGMQEMLDSVPEKRFPVCQAHGYFCQLIDGLEYLHSQGIVHKDIKPGNLLLTTGGTLKISDLGVAEALHPFAADDTCRTSQGSPAFQPPEIANGLDTFSGFKVDIWSAGVTLYNITTGLYPFEGDNIYKLFENIGKGSYAIPGDCGPPLSDLLKGMLEYEPAKRFSIRQIRQHSWFRKKHPPAEAPVPIPPSPDTKDRWRSMTVVPYLEDLHGADECEDLFDIEDDIIYTQDFTVPGQVPEEEASHNGQRRGLPKAVCMNGTEAAQLSTKSRAEGRAPNPARKACSASSKIRRLSACKQQ [D350C] | 1.51 ± 0.31 |
| MEVVDPQQLGMFTEGELMSVGMDTFIHRIDSTEVIYQPRRKRAKLIGKYLMGDLLGEGSYGKVKEVLDSETLCRRAVKILKKKKLRRIPNGEANVKKEIQLLRRLRHKNVIQLVDVLYNEEKQKMYMVMEYCVCGMQEMLDSVPEKRFPVCQAHGYFCQLIDGLEYLNSQGIVHKDIKPGNLLLTTGGTLKISDLGVAEALHPFAADDTCRTSQGSPAFQPPEIANGLDTFSGFKVDIWSAGVTLYNITTGLYPFEGDNIYKLFENIGKGSYAIPGDCGPPLSDLLKGMLEYEPAKRFSIRQIRQHSWFRKKHPPAEAPVPIPPSPDTKDRWRSMTVVPYLEDLHGADEDEDLFDIEDDIIYTQDFTVPGQVPEEEASHNGQRRGLPKAVCMNGTEAAQLSTKSRAEGRAPNPARKACSASSKIRRLSACKQQ [H168N] | 0.275 ± 0.12 |
| MEVVDPQQLGMFTEGELMSVGMDTFIHRIDSTEVIYQPRRKRAKLIGKYLMGDLLGEGSYGKVKEVLDSETLCRRAVKILKKKKLRRIPNGEANVKKEIQLLRRLRHKNVIQLVDVLYNEEKQKMYMVMEYCVCGMQEMLDSVPEKRFPVCQAHGYFCQLIDGLEYLHSQGIVHKDIKPGNLLLTTGGTLKISDLGVAEALHPFAADDTCRTSQGSPAFQPPEIANGLDTFSGFKVDIWSAGVTLYNITTGLYPFEGDNIYKLFENIFKGSYAIPGDCGPPLSDLLKGMLEYEPAKRFSIRQIRQHSWFRKKHPPAEAPVPIPPSPDTKDRWRSMTVVPYLEDLHGADEDEDLFDIEDDIIYTQDFTVPGQVPEEEASHNGQRRGLPKAVCMNGTEAAQLSTKSRAEGRAPNPARKACSASSKIRRLSACKQQ [G268F] | 1.16 ± 0.24 |
| MEVVDPQQLGMFTEGELMSVGMDTFIHRIDSTEVIYQPRRKRAKLIGKYLMGDLLGEGSYGKVKEVLDSETLCRRAVKILKKKKLRRIPNGEANVKKEIQLLRRLRHKNVIQLVDVLYNEEKQKMYMVMEYCVCGMQEMLDSVPEKRFPVCQAHGYFCQLIDGLEYLHSQGIVHKDIKPGNLLVTTGGTLKISDLGVAEALHPFAADDTCRTSQGSPAFQPPEIANGLDTFSGFKVDIWSAGVTLYNITTGLYPFEGDNIYKLFENIGKGSYAIPGDCGPPLSDLLKGMLEYEPAKRFSIRQIRQHSWFRKKHPPAEAPVPIPPSPDTKDRWRSMTVVPYLEDLHGADEDEDLFDIEDDIIYTQDFTVPGQVPEEEASHNGQRRGLPKAVCMNGTEAAQLSTKSRAEGRAPNPARKACSASSKIRRLSACKQQ [L184V] | 1.01 ± 0.21 |
| MEVVDPQQLGMFTEGELMSVGMDTFIHRIDSTEVIYQPRRKRAKLIGKYLMGDLLGEGSYGKVKEVLDSETLCRRAVKILKKKKLRRIPNGEANVKKEIQLLRRLRHKNVIQLVDVLYNEEKQKMYMVMEYCVCGMQEMLDSVPEKRFPVCQAHGYFCQLIDGLEYLHSQGIVHKDIKPGNLLLTTGGTLKISDLGVAEALHPFAADDTCRTSQGSPAFQPPEIANGLDTFSGFKVDIWSAGVTLYNITTGLYPFEGDNIYKLFENIGKGSYAIPGDCGPPLSDLLKGMLEYEPAKRFSIRQIRQHSWFRKKHPPAEAPVPIPPSPDTKDRWRSMTVVPYLEDLHGTDEDEDLFDIEDDIIYTQDFTVPGQVPEEEASHNGQRRGLPKAVCMNGTEAAQLSTKSRAEGRAPNPARKACSASSKIRRLSACKQQ [A347T] | 1.33 ± 0.14 |
| MEVVDPQQLGMFTEGELMSVGMDTFIHRIDSTEVIYQPRRKRAKLIGKYLMGDLLGEGSYGKVKEVLDSETLCRRAVKILKKKKLRRIPNGEANVKKEIQLLRRLRHKNVIQLVDVLYNEEKQKMYMVMEYCVCGMQEMLDSVPEKRFPVCQAHGYFCQLIDGLEYLHSQGIVHKDIKPGNLLLTTGGTLKISDLGVAEALHPFAADDTCRTSQGSPAFQPPEIANGLDTFSGFKVDIWSAGVTLYNITTGLYPFEGDNIYKLFENIGKGSYAIPGVCGPPLSDLLKGMLEYEPAKRFSIRQIRQHSWFRKKHPPAEAPVPIPPSPDTKDRWRSMTVVPYLEDLHGADEDEDLFDIEDDIIYTQDFTVPGQVPEEEASHNGQRRGLPKAVCMNGTEAAQLSTKSRAEGRAPNPARKACSASSKIRRLSACKQQ [D277V] | 1.23 ± 0.17 |
| MEVVDPQQLGMFTEGELMSVGMDTFIHRIDSTEVIYQPRRKRAKLIGKYLMGDLLGEGSYGKVKEVLDSETLCRRAVKILKKKKLRRIPNGEANVKKEIQLLRRLRHKNVIQLVDVLYNEEKQKMYMVMEYCVCGMQEMLDSVPEKRFPVCQAHGYFCQLIDGLEYLHSQGIVHKDIKPGNLLLTTGGTLKISDLGVAEALHPFAADDTCRTSQGSPAFQPPEIANGLDTFSGFKVDIWSAGVTLYNITTGLYPFEGDNIYKLFENIGKGSYAIPGDCGPPLSDLLKGMLEYEPAKRFSIRQIRQHSWFRKKHPPAEAPVPIPPSPDTKDRWRSMTVVPYLEDLHGADEDEDLFDIEDDIIYTQDFTVPGQVPEEEASHGGQRRGLPKAVCMNGTEAAQLSTKSRAEGRAPNPARKACSASSKIRRLSACKQQ [N380G] | 1.57 ± 0.31 |
| MEVVDPQQLGMFTEGELMSVGMDTFIHRIDSTEVIYQPRRKRAKLIGKYLMGDLLGEGSYGKVKEVLDSETLCRRAVKILKKKKLRRIPNGEANVKKEIQLLRRLRHKNVIQLVDVLYNEEKQKMYMPMEYCVCGMQEMLDSVPEKRFPVCQAHGYFCQLIDGLEYLHSQGIVHKDIKPGNLLLTTGGTLKISDLGVAEALHPFAADDTCRTSQGSPAFQPPEIANGLDTFSGFKVDIWSAGVTLYNITTGLYPFEGDNIYKLFENIGKGSYAIPGDCGPPLSDLLKGMLEYEPAKRFSIRQIRQHSWFRKKHPPAEAPVPIPPSPDTKDRWRSMTVVPYLEDLHGADEDEDLFDIEDDIIYTQDFTVPGQVPEEEASHNGQRRGLPKAVCMNGTEAAQLSTKSRAEGRAPNPARKACSASSKIRRLSACKQQ [V128P] | -0.00512 ± 0.14 |
| MEVVDPQQLGMFTEGELMSVGMDTFIHRIDSTEVIYQPRRKRAKLIGKYLMGDLLGEGSYGKVKEVLDSETLCRRAVKILKKKKLRRIPNGEANVKKEIQLLRRLRHKNVIQLVDVLYNEEKQKMYMVMEYCVCGMQEMLDSVPEKRFPVCQAHGYFCQLIDGLEYLHSQGIVHKDIKPGNLLLTTGGTLKISDLGVAEALHPFAADDTCRTSQGSPAFQPPEIANGLDTFSGFKVDIWSAGVTLYNITTGLYPFEGDNIYKLFENIGKGSYAIPGDCGPPLSDLLKGMLEYEPAKRFSIRQIRQHSWFRKKHPPAEAPVPIPPSPDTKDRWRSMTVVPYLEDLHGADEDEDLFDIEDDIIYTQDFTVPGQVPEEEASHNGQRYGLPKAVCMNGTEAAQLSTKSRAEGRAPNPARKACSASSKIRRLSACKQQ [R384Y] | 1.53 ± 0.12 |

Reference: the supplement of paper PMC12338614
